# Test results taken from patent publication US20230303695A1 (SHANGHAI XBH BIOTECHNOLOGY, published 2023).
# T1: D1 domain of IGSF8 (recombinant protein) (human, UniProt Q969P0 28-149, limits assumed)
# T1 construct: domain: D1 (Ig V-set domain); also called Ig V-set domain of IGSF8
# T1 sequence (looked up): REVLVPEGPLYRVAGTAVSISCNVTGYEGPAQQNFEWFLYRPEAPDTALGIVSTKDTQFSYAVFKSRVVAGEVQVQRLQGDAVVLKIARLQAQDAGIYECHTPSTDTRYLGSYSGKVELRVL
# T2: mouse IGSF8 expressed on CT26 cells (mouse, UniProt Q8R366 26-611)
# T2 construct: whole, on cells
# T2 sequence (looked up): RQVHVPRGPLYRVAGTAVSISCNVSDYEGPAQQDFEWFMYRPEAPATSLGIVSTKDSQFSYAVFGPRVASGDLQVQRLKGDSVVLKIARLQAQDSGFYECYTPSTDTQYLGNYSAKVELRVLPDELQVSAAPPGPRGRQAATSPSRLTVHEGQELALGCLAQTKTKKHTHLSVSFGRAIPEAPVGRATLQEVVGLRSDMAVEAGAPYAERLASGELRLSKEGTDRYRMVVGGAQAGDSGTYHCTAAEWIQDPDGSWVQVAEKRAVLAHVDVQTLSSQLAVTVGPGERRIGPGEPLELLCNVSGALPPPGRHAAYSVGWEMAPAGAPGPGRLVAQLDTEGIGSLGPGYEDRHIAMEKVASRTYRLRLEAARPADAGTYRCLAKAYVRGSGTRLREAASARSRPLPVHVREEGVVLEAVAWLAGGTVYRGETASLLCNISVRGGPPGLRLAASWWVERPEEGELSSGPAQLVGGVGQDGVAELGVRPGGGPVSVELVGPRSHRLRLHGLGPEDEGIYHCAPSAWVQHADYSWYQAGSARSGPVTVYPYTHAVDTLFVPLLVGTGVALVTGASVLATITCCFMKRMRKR
# T3: full-length IGSF8 (recombinant antigen of the SPR screen; IGSF8 target antigen of the phage panning) (human, UniProt Q969P0 28-579, limits assumed)
# T3 sequence (looked up): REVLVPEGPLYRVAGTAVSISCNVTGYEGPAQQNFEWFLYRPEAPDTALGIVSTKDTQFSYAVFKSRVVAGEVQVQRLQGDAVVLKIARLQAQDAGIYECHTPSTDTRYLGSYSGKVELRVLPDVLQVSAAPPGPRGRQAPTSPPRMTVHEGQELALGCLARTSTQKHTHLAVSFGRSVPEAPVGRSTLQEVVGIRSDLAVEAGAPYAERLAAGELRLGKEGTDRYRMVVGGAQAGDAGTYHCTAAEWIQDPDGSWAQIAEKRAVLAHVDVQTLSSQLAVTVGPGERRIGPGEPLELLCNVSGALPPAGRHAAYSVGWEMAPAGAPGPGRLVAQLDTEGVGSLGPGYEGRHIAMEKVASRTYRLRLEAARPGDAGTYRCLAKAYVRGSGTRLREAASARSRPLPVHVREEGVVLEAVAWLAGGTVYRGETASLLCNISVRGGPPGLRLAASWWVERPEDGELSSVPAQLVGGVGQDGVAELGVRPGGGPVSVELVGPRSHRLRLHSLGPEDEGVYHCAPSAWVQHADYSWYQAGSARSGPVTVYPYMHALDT
# T4: human IGSF8 expressed on the cell surface (human, UniProt Q969P0 28-613)
# T4 construct: whole, on cells; also called human IGSF8 on CT26 cells; IGSF8 on MC38 cells
# T4 sequence (looked up): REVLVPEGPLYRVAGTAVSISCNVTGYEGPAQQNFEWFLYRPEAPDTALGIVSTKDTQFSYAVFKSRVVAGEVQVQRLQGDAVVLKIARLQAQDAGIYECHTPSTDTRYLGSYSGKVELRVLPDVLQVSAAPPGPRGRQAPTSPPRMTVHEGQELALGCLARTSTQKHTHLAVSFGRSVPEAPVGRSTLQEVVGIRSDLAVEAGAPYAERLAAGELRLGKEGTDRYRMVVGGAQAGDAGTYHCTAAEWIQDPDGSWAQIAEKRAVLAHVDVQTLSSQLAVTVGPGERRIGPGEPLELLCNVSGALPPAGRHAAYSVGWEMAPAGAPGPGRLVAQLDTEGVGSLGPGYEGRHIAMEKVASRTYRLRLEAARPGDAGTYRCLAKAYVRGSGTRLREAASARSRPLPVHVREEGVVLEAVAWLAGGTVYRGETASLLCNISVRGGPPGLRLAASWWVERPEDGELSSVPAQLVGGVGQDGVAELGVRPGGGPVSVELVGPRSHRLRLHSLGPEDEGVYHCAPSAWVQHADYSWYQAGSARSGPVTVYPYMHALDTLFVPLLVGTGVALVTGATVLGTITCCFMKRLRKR
# T5: IGSF8 protein without D1 domain (human, UniProt Q969P0 150-579, limits assumed)
# T5 construct: domain: D2-4; also called D24; D2-4
# T5 sequence (looked up): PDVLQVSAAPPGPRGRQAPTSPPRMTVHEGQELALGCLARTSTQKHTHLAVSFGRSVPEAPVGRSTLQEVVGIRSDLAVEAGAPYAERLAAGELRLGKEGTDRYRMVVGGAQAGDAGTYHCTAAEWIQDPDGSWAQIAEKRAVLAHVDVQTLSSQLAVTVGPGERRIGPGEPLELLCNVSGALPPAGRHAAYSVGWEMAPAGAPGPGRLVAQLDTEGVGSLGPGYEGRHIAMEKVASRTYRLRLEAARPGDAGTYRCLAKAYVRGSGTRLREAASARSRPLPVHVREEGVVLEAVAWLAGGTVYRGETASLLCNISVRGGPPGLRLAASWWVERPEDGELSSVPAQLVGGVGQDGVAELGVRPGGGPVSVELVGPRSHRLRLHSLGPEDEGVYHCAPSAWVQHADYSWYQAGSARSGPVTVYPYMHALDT
# T6: recombinant human IGSF8 extracellular domain tagged by a human Fc region (IGSF8-hFc) (human, UniProt Q969P0 28-579, biotin label in Examples 17, 18 and 28 (site not given))
# T6 construct: also called IGSF8-Fc fusion protein; IGSF8-hFc-biotin; not shown: human Fc region
# T6 sequence: T3 sequence (looked up)
# B1: Antibody C32 (B104) (antibody, IgG1, V domains shown)
# VH: QVQLVQSGAEVKRPGASVKVSCKASGYTFTNDIIHWVRQAPGQRLEWMGWINAGYGNTQYSQNFQDRVSITRDTSASTAYMELISLRSEDTAVYYCARGYYRSPTWFDWWGQGTLVTVSS
# VL: ETTLTQSPSSLSASVGDRVTITCRASQSISSWLAWYQQKPGKAPKLLIYKASSLESGVPSRFSGSGSGTEFTLTISSLQPDDFATYYCQQYGDYPYTFGQGTKLEIKR
# notes: also called mAb-B104 (C32)
# B2: Antibody C31 (B46) (antibody, V domains shown)
# VH: QVQLVESGGGVVQPGRSLRLSCAASGFTFSTYGMHWVRQAPGKGLEWVAVIWDDGSYKYYGDSVKGRFTISRDNSKNTLYLQMNSLRAEDTAVYYCAGGYSYSYMAIWGKGTTVTVSS
# VL: DIVLTQSPSSLSASVGDRVTITCRASQGISTFLNWYQQKPGKAPKLLIYAASSLQSGVPSRFSGSGSGTDFTLTIGSLQPEDFASYFCQQTYSTQWTFGQGTKVEIK
# notes: also called mAb-B46 (C31)
# B3: KIR3DL1 expressed on CT26 cells (receptor, human, UniProt P43629 22-444, looked up)
# chain: HMGGQDKPFLSAWPSAVVPRGGHVTLRCHYRHRFNNFMLYKEDRIHIPIFHGRIFQESFNMSPVTTAHAGNYTCRGSHPHSPTGWSAPSNPVVIMVTGNHRKPSLLAHPGPLVKSGERVILQCWSDIMFEHFFLHKEGISKDPSRLVGQIHDGVSKANFSIGPMMLALAGTYRCYGSVTHTPYQLSAPSDPLDIVVTGPYEKPSLSAQPGPKVQAGESVTLSCSSRSSYDMYHLSREGGAHERRLPAVRKVNRTFQADFPLGPATHGGTYRCFGSFRHSPYEWSDPSDPLLVSVTGNPSSSWPSPTEPSSKSGNPRHLHILIGTSVVIILFILLLFFLLHLWCSNKKNAAVMDQEPAGNRTANSEDSDEQDPEEVTYAQLDHCVFTQRKITRPSQRPKTPPTDTILYTELPNAKPRSKVVSCP
# notes: whole, on cells; lentiviral vector containing a thy1.1 tag
# B4: Antibody C36 (1B4) (antibody, V domains shown)
# VH: EVQLLESGGGLVQPGGSLRLSCAASGFTFSSYAMSWVRQAPGKGLEWVSGITGSGGSTYYADSVKGRFTISRDNSKNTLYLQMNSLRAEDTAIYYCARGGALDIWGQGTMVTVSS
# VL: DIQMTQSPSSLSASVGDRVTITCRASQVIHNYLAWYKQKPGQAPKLLIYSASSLQSGVPSRFSGSGSGTDFTLTISSLQPEDFATYYCQQSYSTPLTFGGGTKVEIKR
# notes: also called mAb-1B4 (C36)
# B5: KLRC1/KLRD1 heterodimer expressed on CT26 cells (receptor)
# chain 1: not shown
# chain 2: MAVFKTTLWRLISGTLGIICLSLMSTLGILLKNSFTKLSIEPAFTPGPNIELQKDSDCCSCQEKWVGYRCNCYFISSEQKTWNESRHLCASQKSSLLQLQNTDELDFMSSSQQFYWIGLSYSEEHTAWLWENGSALSQYLFPSFETFNTKNCIAYNPNGNALDESCEDKNRYICKQQLI
# notes: whole, on cells; cells co-transfected with both lentiviral constructs; also called KLRC1&D1 heterodimer; KLRC1/D1
# Tests used:
# [1] = biological target: T1, D1 domain of IGSF8 (recombinant protein); experiment: SPR, Biacore T100
# [2] = biological target: T2, mouse IGSF8 expressed on CT26 cells; experiment: FACS on CT26 cells
# [3] = biological target: T3, full-length IGSF8 (recombinant antigen …); experiment: SPR, Biacore T100
# [4] = biological target: T4, human IGSF8 expressed on the cell …; experiment: FACS on CT26 cells with forced surface expression of human IGSF8
# Experimental: For antibody binding assays based on cell-expressed antigens, 100,000 cells overexpressing the antigen (either the full-length IGSF8 or the D1 domain thereof) were washed with PBS buffer containing 2% FBS, and then incubated with 100 μL of antibodies or IgG of different concentrations for 30 minutes on ice. Cells were then washed twice with wash buffer, and incubated with 100 μL of 1:100 anti-human Fc-PE antibody for 15 minutes on ice. Cells were washed twice with wash buffer and analyzed on a FACS analyzer (CytoFlex, Beckman).
# [5] = biological target: T5, IGSF8 protein without D1 domain; experiment: FACS, single antibody dose, IGSF8-D24 (D2-D4 with TM, no D1) expressed on CT26 cells
# [6] = biological target: T5, IGSF8 protein without D1 domain; experiment: FACS, hFc-tagged proteins on CT26 cells expressing the receptor, MFI normalized to Thy1.1
# Experimental: (§1) KLRC1 also contains a ITIM motif in its intracellular domain, and was known to be a inhibitory receptor of NK or CD8⁺ T cells as part of a heterodimer with KLRD1 on the cell surface. […] Specifically, 100,000 CT26 cells overexpressing the antigens (KIRs or KLRs) were washed with PBS buffer containing 2% FBS, and incubated with 100 μL IGSF8 recombinant proteins or antibodies (5 μg/mL) for 30 minutes on ice. Cells were then washed twice with wash buffer, and incubated with 100 μL of 1:100 anti-human Fc-PE antibody for 15 minutes on ice. Cells were washed twice with wash buffer and analyzed on a FACS analyzer (CytoFlex, Beckman). In these experiments, the mean fluorescence intensity (MFI) of IGSF8 binding to different CT26 cells were normalized by the expression of different KLRs on CT26 cells using an anti-thy1.1 mAb via flow cytometry.
# [7] = biological target: T6, recombinant human IGSF8 extracellular …; experiment: FACS, biotin-labelled IGSF8-hFc on CT26 cells expressing the KIR, MFI normalized to Thy1.1
# Experimental: For this experiment, different human KIR receptors (KIR2DL1, KIR2DL2, KIR2DL3, KIR2DL4, KIR2DL5A, KIR2DL5B, KIR3DL1, KIR3DL2, KIR3DL3) were first cloned into a proprietary lentiviral vector containing a thy1.1 tag (FIG. 17A). Then mouse CT26 cells, were transducted by these lentiviral constructs, and IGSF8 binding was tested with biotin-labelled recombinant IGSF8 hFc fusion protein. The mean fluorescence intensity (MFI) of IGSF8 binding to different CT26 cells were normalized by the expression of different KIRs on CT26 cells using an anti-thy1.1 mAb (Biolegend) via flow cytometry.
# as §1
Binder,Kd [1],binding result [2],Kd [3],EC50 [4],binding result [5],binding result [6],binding result [7]
B1,< 50 nM,binds,25.9 nM,5.42 nM,no binding (tested: not shown on the sheet),–,–
B2,< 50 nM,binds,7.29 nM,2.08 nM,no binding (tested: not shown on the sheet),–,–
B3,–,–,–,–,–,no binding,binds
B4,< 50 nM,binds,4.57 nM,2.02 nM,–,–,–
B5,–,–,–,–,–,no binding,–
